The target in assay [1] is T1, human GLP-1 receptor (human, UniProt P43220 24-463).
T1 construct: whole, on cells
The assay is described as follows: 125I-GLP-1 displacement, membranes of CHOK1 cells expressing human GLP-1 receptor. On the procedure: (§1) Membrane Preparation. […] Cells were sedimented at 1500 rpm for 10 minutes. The resulting pellets were homogenized in 15 mls of ice cold sucrose buffer (25 mM Tris-HCl, 0.32 M Sucrose, 0.25 g/L, sodium azide, pH 7.4) with a motorized, glass fitted, Teflon homogenizer. The homogenate was centrifuged at 48,000×g at 4° C. for 10 minutes, resuspended in 25 ml assay buffer (50 mM Tris-HCl, 5 mM MgCl₂, 10 mg/ml protease-free BSA, 0.1 mg/ml STI, and 0.1 mg/ml Pefabloc, pH 7.4) with a Tissue-Tearor (Biospec Products), then centrifuged again at 48,000×g for 10 minutes. The pellets were homogenized for a third time in 15 ml assay buffer using the Tissue-Tearor and again centrifuged at 48,000×g for 10 minutes. The resulting pellet was resuspended in assay buffer at a wet weight concentration of 4 mg/ml.
(§2) Ligand Binding Assay. Binding assays were performed in 96-well U-bottom plates. […] The reaction was terminated by rapid filtration through Unfilter-96 GF/C glass fiber filter plates (FilterMate 196 Packard Harvester, PerkinElmer, Shelton, Conn.) pre-soaked in 0.5% polyethylenimine, followed by three washes with 300 μl of cold 50 mM Tris-HCl, pH 7.4. Bound radioactivity was determined using a TopCount microplate scintillation and luminescence counter (Packard Instrument Company, PerkinElmer, Shelton, Conn.). Nonlinear regression analyses of resulting concentration curves were performed using GraphPad Prism (GraphPad Software, Inc., San Diego, Calif.).

Assay [2] addresses T2, mouse GLP-1 receptor (mouse, UniProt O35659 22-463).
T2 sequence (looked up): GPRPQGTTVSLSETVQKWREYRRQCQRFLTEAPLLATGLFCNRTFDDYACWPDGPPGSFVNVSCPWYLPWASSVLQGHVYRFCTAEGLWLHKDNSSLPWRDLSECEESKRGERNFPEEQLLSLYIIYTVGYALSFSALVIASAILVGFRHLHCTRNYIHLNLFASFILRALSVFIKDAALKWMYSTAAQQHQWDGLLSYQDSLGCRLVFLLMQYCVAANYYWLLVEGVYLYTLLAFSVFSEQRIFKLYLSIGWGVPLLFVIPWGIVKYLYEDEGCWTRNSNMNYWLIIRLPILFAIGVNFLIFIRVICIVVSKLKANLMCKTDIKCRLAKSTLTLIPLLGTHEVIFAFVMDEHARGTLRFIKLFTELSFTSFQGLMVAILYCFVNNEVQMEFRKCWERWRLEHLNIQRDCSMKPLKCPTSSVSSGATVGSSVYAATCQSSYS
The assay is described as follows: cell-based or functional assay.

In assay [3] the target is T1, human GLP-1 receptor. The assay is described as follows: cell-based or functional assay.
For assay [4], the target named is T2, mouse GLP-1 receptor. The assay is described as follows: cell-based or functional assay. This is another data set of the same source.
The target in assay [5] is T2, mouse GLP-1 receptor. The assay is described as follows: cell-based or functional assay. The source holds these as a separate data set.
Assay [6] has as its target T1, human GLP-1 receptor. The assay is described as follows: cell-based or functional assay. The source holds these as a separate data set.
In assay [7] the target is T1, human GLP-1 receptor. The assay is described as follows: 125I-GLP-1 displacement, membranes of CHOK1 cells expressing human GLP-1 receptor. As to the method: as §1
as §2, with “Calif.). […]” for “Calif.).”
The source holds these as a separate data set.

Like-named read-outs stand apart in the source and are kept apart here. Non-standard residues stand in square brackets, D forms with d. Primed or numbered codes have the meaning given here. No end group written: not given here. Aib′ = alpha aminobutyric acid (source's wording)

Consider MQHAEGTFTSDVSSYLEGQAAKEFIAWLVKGR (ends and bridges not checked, Not pegylated) [MQ-GLP1 (SEQ ID NO: 253)], for which the IC50 in assay [1] came out at 64 nM. In assay [2], this molecule returned an EC50 mouse of 3 nM. The EC50 human in assay [3] was 0.5 nM.

MKHAEGTFTSDVSSYLEGQAAKEFIAWLVKGR (not fully specified; ends and bridges not checked, Not pegylated) [MK-GLP1 (SEQ ID NO: 255)] came in with an IC50 in assay [1] of 760 nM. The same molecule displayed an EC50 mouse in assay [2] of 12 nM. Moreover, the EC50 human in assay [3] stood at 4 nM.

As for MIHAEGTFTSDVSSYLEGQAAKEFIAWLVKGR (not fully specified; ends and bridges not checked, Not pegylated) [MI-GLP1 (SEQ ID NO: 260)], in assay [1], the IC50 was 75 nM. In addition, the EC50 mouse in assay [2] worked out at 6 nM. This molecule displayed an EC50 human in assay [3] of 0.6 nM.

On to MHHAEGTFTSDVSSYLEGQAAKEFIAWLVKGR (ends and bridges not checked, Not pegylated) [MH-GLP1 (SEQ ID NO: 257)], for which the IC50 in assay [1] is 350 nM. Besides, the EC50 mouse in assay [2] was 11 nM. This molecule also showed an EC50 human in assay [3] of 2 nM.

In assay [1], MLHAEGTFTSDVSSYLEGQAAKEFIAWLVKGR (ends and bridges not checked, Not pegylated) [ML-GLP1 (SEQ ID NO: 262)] had an IC50 of 160 nM. This molecule also yielded an EC50 mouse in assay [2] of 6 nM. Also, in assay [3], the EC50 human was 0.7 nM.

Consider MNHAEGTFTSDVSSYLEGQAAKEFIAWLVKGR (ends and bridges not checked, Not pegylated) [MN-GLP1 (SEQ ID NO: 263)], for which the 50% inhibitory concentration (IC50) in assay [1] was determined as 50 nM. The same molecule displayed an EC50 mouse in assay [2] of 2 nM. Besides, the EC50 human in assay [3] was found to be 0.3 nM.

Turning to MWHAEGTFTSDVSSYLEGQAAKEFIAWLVKGR (ends and bridges not checked, Not pegylated) [MW-GLP1 (SEQ ID NO: 265)], in assay [1], the IC50 was 79 nM. The EC50 mouse in assay [2] came to 5 nM. Moreover, in assay [3], the EC50 human was found to be 0.8 nM.

On to MRHAEGTFTSDVSSYLEGQAAKEFIAWLVKGR (ends and bridges not checked, Not pegylated) [MR-GLP1 (SEQ ID NO: 254)], for which the IC50 in assay [1] worked out at 590 nM. For the same molecule, the EC50 mouse in assay [2] was found to be 41 nM. In assay [3], this molecule showed an EC50 human of 8 nM.

In assay [1], MMHAEGTFTSDVSSYLEGQAAKEFIAWLVKGR (not fully specified; ends and bridges not checked, Not pegylated) [MM-GLP1 (SEQ ID NO: 267)] yielded an IC50 of 100 nM. Moreover, the EC50 mouse in assay [2] came to 3 nM. This molecule also had an EC50 human in assay [3] of 0.5 nM.

The molecule MYHAEGTFTSDVSSYLEGQAAKEFIAWLVKGR (ends and bridges not checked, Not pegylated) [MY-GLP1 (SEQ ID NO: 259)] gave an IC50 in assay [1] of 57 nM. The same molecule showed an EC50 mouse in assay [2] of 1 nM. This molecule displayed an EC50 human in assay [3] of 0.4 nM.

The molecule MFHAEGTFTSDVSSYLEGQAAKEFIAWLVKGR (ends and bridges not checked, Not pegylated) [MF-GLP1 (SEQ ID NO: 266)] gave an IC50 in assay [1] of 180 nM. The same molecule gave an EC50 mouse in assay [2] of 6 nM. The EC50 human in assay [3] was 1 nM.

Take MDHAEGTFTSDVSSYLEGQAAKEFIAWLVKGR (Not pegylated) [MD-GLP1 (SEQ ID NO: 261)]: the IC50 in assay [1] was found to be 82 nM. In assay [2], this molecule had an EC50 mouse of 2 nM. In assay [3], this molecule showed an EC50 human of 0.3 nM.

For MEHAEGTFTSDVSSYLEGQAAKEFIAWLVKGR (Not pegylated) [ME-GLP1 (SEQ ID NO: 264)], in assay [1], the IC50 worked out at 95 nM. Besides, the EC50 mouse in assay [2] was 4 nM. This molecule also returned an EC50 human in assay [3] of 1 nM.

In assay [1], MHHHAEGTFTSDVSSYLEGQAAKEFIAWLVKGR (ends and bridges not checked, Not pegylated) [MHH-GLP1 (SEQ ID NO: 258)] gave an IC50 of 350 nM. In assay [2], this molecule yielded an EC50 mouse of 5 nM. Moreover, in assay [3], the EC50 human was determined as 1 nM.

Consider HGEGTFTSDVSSYLEGC(PEG 20 kDa)AAKEFIAWLKNGGPSSGAPPPS [cgGLP-13 (SEQ ID NO: 8 + 20k PEG monomer)], for which, in assay [4], the EC50 mouse came out at 3 nM.

In assay [5], HGEGTFTSDVSSYLE[Aib′]QAAKEFIAWLVKGRG-NH2 [HGEGT FTSDV SSYLE [Aib]QAAK EFIAW LVKGR G-AMIDE (SEQ ID NO: 15)] showed an EC50 mouse of 0.12 nM. The molecule also gave an EC50 human in assay [6] of 0.027 nM. Besides, in assay [7], the IC50 worked out at 3.5 nM.

Regarding HGEGTFTSDVSSYLE[Aib′]QAAKEFIAWLVKGRGC(mPEG‑maleimide 20 kDa)A-NH2 (also called cgGLP30) [mgGLP32 & mgGLP-20 (SEQ ID NO: 18 + 20k PEG)], the EC50 mouse in assay [5] was 0.84 nM. Besides, the EC50 human in assay [6] amounted to 0.13 nM. Besides, the IC50 in assay [7] is 56 nM.

HGEGTFTSDVSSYLE[Aib′]QAAKEFIAWLVKGRGC(mPEG‑maleimide 20 kDa)G-NH2 [mgGLP-16 (SEQ ID NO: 20 + 20k PEG)] registered an EC50 mouse in assay [5] of 1.6 nM. Besides, the EC50 human in assay [6] is 0.2 nM. Besides, in assay [7], the IC50 was found to be 50 nM.

Take AHAEGTFTSDVSSYLEGQAAKEFIAWLVKGR (Not pegylated) [A-GLP-1 (SEQ ID NO: 247)]: the IC50 in assay [1] came out at 38 nM. The molecule further registered an EC50 mouse in assay [2] of 0.8 nM. This molecule had an EC50 human in assay [3] of 0.2 nM.

Consider VHAEGTFTSDVSSYLEGQAAKEFIAWLVKGR (ends and bridges not checked, Not pegylated) [V-GLP-1 (SEQ ID NO: 252)], for which the IC50 in assay [1] came out at 32 nM. In assay [2], this molecule came in with an EC50 mouse of 1 nM. The same molecule gave an EC50 human in assay [3] of 0.2 nM.

Take THAEGTFTSDVSSYLEGQAAKEFIAWLVKGR (not fully specified; ends and bridges not checked, Not pegylated) [T-GLP-1 (SEQ ID NO: 251)]: the IC50 in assay [1] was found to be 53 nM. Further, the EC50 mouse in assay [2] amounted to 2 nM. The molecule further registered an EC50 human in assay [3] of 0.3 nM.

Molecule SHAEGTFTSDVSSYLEGQAAKEFIAWLVKGR (ends and bridges not checked, Not pegylated; also called S-CLP-1) [S-GLP-1 (SEQ ID NO: 250)] yielded an IC50 in assay [1] of 53 nM. The EC50 mouse in assay [2] came out at 2 nM. This molecule also came in with an EC50 human in assay [3] of 0.4 nM.

Take PHAEGTFTSDVSSYLEGQAAKEFIAWLVKGR (ends and bridges not checked, Not pegylated; also called P-CLP-1) [P-GLP-1 (SEQ ID NO: 249)]: the IC50 in assay [1] was 38 nM. This molecule had an EC50 mouse in assay [2] of 1 nM. This molecule returned an EC50 human in assay [3] of 0.2 nM.

In assay [2], MHAEGTFTSDVSSYLEGQAAKEFIAWLVKGR (Not pegylated) [M-GLP1 (SEQ ID NO: 256)] displayed an EC50 mouse of 0.5 nM. Besides, the EC50 human in assay [3] was 0.086 nM.

Regarding GHAEGTFTSDVSSYLEGQAAKEFIAWLVKGR (not fully specified, Not pegylated) [G-GLP-1 (SEQ ID NO: 248)], the IC50 in assay [1] worked out at 80 nM. The molecule also gave an EC50 mouse in assay [2] of 3 nM. In assay [3], this molecule registered an EC50 human of 1 nM.
